Results on 29 sequences are retold here after the supplement of paper PMC9170038.

In the data set the test system is MS2 coat protein. Nature of the data set: apparent KD of MS2 coat protein; designed switch direction (-1 OFF switch, 1 ON switch): -1; higher = weaker reporter binding. In a few lines:
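Designed RNA switches with common flanks were transcribed on Illumina chips by stalled E. coli RNA polymerase and titrated with SNAP-549-labelled MS2 coat protein, from 0.7 or 1.5 nM doubling to 3 µM, in Tris-HCl pH 7.5 buffer with KCl, MgCl2, BSA, DTT, tRNA and Tween-20. Steps lasted 0.8–1.5 h (lowest) to 10–20 min (highest). Titrations ran without input, with 200 uM small-molecule ligand, or with an oligonucleotide input. Normalised cluster fluorescence was curve-fitted, and apparent KD is the per-design median over clusters.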

The mark [1] stands for this setting: Eterna round: R95, input ligand: FMN 200 uM.
[2] abbreviates: Eterna round: R95, input ligand: microRNA oligo, concentration not stated.
Where [3] appears, read: Eterna round: R95, input ligand: none.
Where [4] appears, read: input ligand: microRNA oligo, concentration not stated.

Consider “UGUGUGAGACAGGAUAUGCCGGAUGAAUUGCAGGUAGAAGGGUCUACAUGAGGAUCACCCAUGUGGCCGGUUGG [Ex6 #76] (Eterna round: R97, puzzle: Exclusion 6)”, for which the “apparent KD of MS2 coat protein” value runs as follows: (input ligand: FMN 200 uM) 0.0198 µM; (input ligand: none) 0.0136 µM.

As to “UGUGUGAGACAGGAUAUGCCGGUUGUAUUACUGGUAGAAGGGUCUACAUGAGGAUCACCCAUGUGGCCGGCCGG [Ex6 #82] (Eterna round: R97, puzzle: Exclusion 6)”, the “apparent KD of MS2 coat protein” value is, setting by setting: (input ligand: FMN 200 uM) 0.0731 µM; (input ligand: none) 0.0262 µM.

Turning to “UGUUGGCGAGGAUAUACAUGAGGAUCACCCAUGUGAGAGAAAAAAGUGAGGAAGAAAAGUAGAAGGCGCUGACC [salish99_ex3_r3_042] (puzzle: Exclusion 3)”, the “apparent KD of MS2 coat protein” value came to 0.165 µM under setting [1], 0.041 µM under setting [2] and 0.0551 µM under setting [3].

In the case of “UGUUGGUACGUAGGAUAUCCACCAACAGGUGGAAGGAUAUGUACGCAGAAGGUUCGCCAACAGGCGGAGAAGGACGUGGUAACU [pwkr exNG2 2xF7 2xFMN.29] (Eterna round: R96, puzzle: Exclusion NG 2)”, the “apparent KD of MS2 coat protein” value reads like this: (input ligand: FMN 200 uM) 0.0346 µM; under setting [4], 0.0738 µM; (input ligand: none) 0.169 µM.

Turning to “UGUUGUCGCGUAGGAUAUGAGGAUCACCCAUAUACAGGAUAUGAAAAGAAGGGUCUGAGGAUCACCCAGAAGGACGGGACAACU [pwkr exNG2 2xF5 2xFMN.28] (Eterna round: R96, puzzle: Exclusion NG 2)”, the “apparent KD of MS2 coat protein” value is, setting by setting: (input ligand: FMN 200 uM) 1.39 µM; under setting [4], 0.0949 µM; (input ligand: none) 0.116 µM.

In the case of “UGUUGUCGCGUAGGAUAUGGCCAACAGGCCCUAGGAUAUGCGAAAGCAGAAGGAGCGCCAACAGGCGAGAAGGACGGGACAACU [pwkr exNG2 2xF7 2xFMN.17] (Eterna round: R96, puzzle: Exclusion NG 2)”, the “apparent KD of MS2 coat protein” value came to 0.0206 µM (input ligand: FMN 200 uM), 0.0136 µM under setting [4] and 0.359 µM (input ligand: none).

As to “UGUUGUCGCGUAGGAUAUGGCCAACAGGCCCUAGGAUAUGGGAAACCAGAAGGAGCGCCAACAGGCGAGAAGGACGGGACAACU [pwkr exNG2 2xF7 2xFMN.19] (Eterna round: R96, puzzle: Exclusion NG 2)”, the “apparent KD of MS2 coat protein” value runs as follows: (input ligand: FMN 200 uM) 0.734 µM; under setting [4], 0.451 µM; (input ligand: none) 0.268 µM.

In the case of “UGUUGUUACGCAGGAUAUCCACCAACAGGUGGAAGGAUAUGUACGCAGAAGGUUCGCCAACAGGCGGAGAAGGGCGGGUUAACA [pwkr exNG2 2xF7 2xFMN.26] (Eterna round: R96, puzzle: Exclusion NG 2)”, the “apparent KD of MS2 coat protein” value runs as follows: (input ligand: FMN 200 uM) 0.178 µM; under setting [4], 0.0634 µM; (input ligand: none) 3.69 µM.

Regarding “UGUUGUUCAGGAUAUGGUGUGUUGUACAUGAGGAUCACCCAUGUGGGUCCUGGUUUGGCGUCAGAAGGGAAUGUUG [salish99_ex5_r4_118] (Eterna round: R97, puzzle: Exclusion 5)”, the “apparent KD of MS2 coat protein” value (input ligand: FMN 200 uM) was determined as 0.482 µM and the “apparent KD of MS2 coat protein” value (input ligand: none) was found to be 0.778 µM.

Regarding “UUAAAACGUGUAGGAUAUGCGUGGCGAAGCUAUGCAGAAGGACAUGAGGAUCACCCAUGUUCCUGCGUCCGCGUACGGAUGCAA [JL Eng1 1.21 mod 2] (Eterna round: R96, puzzle: Exclusion NG 1)”, the “apparent KD of MS2 coat protein” value was 0.018 µM (input ligand: FMN 200 uM), 0.0119 µM under setting [4] and 0.0131 µM (input ligand: none).

“UUAAAUCAUGUAGGAUAUGCGUGGCGAAGCUAUGCAGAAGGACAUGAGGAUCACCCAUGUGCUUCCGUCUGCGUACAGAUGGUA [JL ENG1 1.13] (Eterna round: R96, puzzle: Exclusion NG 1)”: the “apparent KD of MS2 coat protein” value by setting is: (input ligand: FMN 200 uM) 0.315 µM; under setting [4], 0.0527 µM; (input ligand: none) 0.0625 µM.

“UUAAAUCAUGUAGGAUAUGCGUGGCGAAGCUAUGCAGAAGGACAUGAGGAUCACCCAUGUUCUAGCGUCUGAGUACAGAUGCAA [Mat - Exclusion NG 1 - Mod of JL - D2] (Eterna round: R96, puzzle: Exclusion NG 1)”: the “apparent KD of MS2 coat protein” value was 0.244 µM (input ligand: FMN 200 uM), 0.0174 µM under setting [4] and 0.0189 µM (input ligand: none).

With “UUAAAUCAUGUAGGAUAUGCGUGGCGAAGCUAUGCAGAAGGACAUGAGGAUCACCCAUGUUCUAGCGUCUGCGUACAGAUGCGG [JL JSci mod] (Eterna round: R96, puzzle: Exclusion NG 1)”, the “apparent KD of MS2 coat protein” value by setting is: (input ligand: FMN 200 uM) 0.334 µM; under setting [4], 0.022 µM; (input ligand: none) 0.0298 µM.

Take “UUAAAUCAUGUAGGAUAUGCUUUGCGAAGCGAGGCAGAAGGACAUGAGGAUCACCCAUGUGCUAGCGUCCGCGUACGGAUGCAA [Mat - Exclusion NG 1 - Mod of JL - D61] (Eterna round: R96, puzzle: Exclusion NG 1)”: the “apparent KD of MS2 coat protein” value is, setting by setting: (input ligand: FMN 200 uM) 0.166 µM; under setting [4], 0.0573 µM; (input ligand: none) 0.083 µM.

Consider “UUAACAUGCUGGUGAUCAUACAUGAGGAUCACCCAUGUAACAAGCUUUUUGUUCGUCUUAAUUUAAUUGAUUACUAG [Stov1/8-B1] (Eterna round: R97, puzzle: Sensor, turn-off variant 1)”, for which the “apparent KD of MS2 coat protein” value reads like this: (input ligand: FMN 200 uM) 0.188 µM; (input ligand: none) 0.247 µM.

“UUAACAUUCGUCAGGAUAUUUGCUCGGUGUACGAGAGAGAAGGGACAUGAGGAUCACCCAUGUGACUUCAGCAA [Eternabot (Original) Solution 2] (Eterna round: R97, puzzle: Brourd's mod of Exclusion 4)”: the “apparent KD of MS2 coat protein” value is 0.0196 µM (input ligand: FMN 200 uM) and 0.0151 µM (input ligand: none).

With “UUAAGGGACUGAGGAUAUACAUGAAUUAUGUUUGUAGAAGGCAGAUUGUUAGUUUAUUCACUAUACAUGAGGAUCACCCAUGUU [JR_ExcNG1_Sub019] (Eterna round: R96, puzzle: Exclusion NG 1)”, under setting [4], the “apparent KD of MS2 coat protein” value turned out to be 0.0171 µM.

In the case of “UUAAUUAAUUAACGCAGCAAGAUCACAUGAGGAUCACCCAUGUAGGAUAUCAGCUCGAUUAGAGCUGAGAAGGACAUAGCUGCG [ExNG3/1-A1] (Eterna round: R96, puzzle: Exclusion NG 3)”, the “apparent KD of MS2 coat protein” value by setting is: (input ligand: FMN 200 uM) 0.103 µM; under setting [4], 0.0182 µM; (input ligand: none) 0.0175 µM.

“UUACCCUGAGGAUAUCCACCGUGAUACAUGAGGAUCACCCAUGUUAAUGCCUGAGUUCCCGGAGAAGGCAGAUUCC [Megrez] (Eterna round: R97, puzzle: Exclusion 5)”: the “apparent KD of MS2 coat protein” value is 0.0353 µM (input ligand: FMN 200 uM) and 0.0334 µM (input ligand: none).

In the case of “UUACGAUUGCUAGGAUAUCCACGAAUAGCUCCGGGAGAAGGAGCUCUCGUACAUGAGGAUCACCCAUGUCAGGGUGUCCAAUUU [Onraedin] (Eterna round: R96, puzzle: Exclusion NG 1)”, the “apparent KD of MS2 coat protein” value (input ligand: FMN 200 uM) is 0.0381 µM, the “apparent KD of MS2 coat protein” value under setting [4] was determined as 0.0214 µM and the “apparent KD of MS2 coat protein” value (input ligand: none) came out at 0.0407 µM.

In the case of “UUACUACAUGUAGGAUAUGCGUGGCGAAGCUAUGCAGAAGGACAUGAGGAUCACCCAUGUUUUAGCGUCUGCGUACAGAUGCGU [JL ENG1 1.47] (Eterna round: R96, puzzle: Exclusion NG 1)”, the “apparent KD of MS2 coat protein” value under setting [4] turned out to be 0.0148 µM.

Turning to “UUAGAUUAUUGAGGAUAUGGUUAUUUUUAUUAACCAGAAGGCAAACUCAACAUGAGGAUCACCCAUGUAUAAAGGGUAUUAGUU [JR_ExcNG1_Sub097] (Eterna round: R96, puzzle: Exclusion NG 1)”, under setting [4], the “apparent KD of MS2 coat protein” value amounted to 0.0719 µM.

As to “UUAGAUUGAGGAUAUACAUGAGGAUCACCCAUGUCGAUACCAAUGGUGUUGACCGUCAGUAGAAGGCGAAUUGA [Eternabot (L1) Solution 87] (Eterna round: R97, puzzle: Exclusion 3)”, the “apparent KD of MS2 coat protein” value (input ligand: FMN 200 uM) stood at 0.163 µM and the “apparent KD of MS2 coat protein” value (input ligand: none) stood at 0.123 µM.

As for “UUAUACAAGCAAAGAUCCCACAUGAGGAUCACCCAUGUGCUCGUCUUAUAAGGAUCUGUGACGAAAGUCACGGAUCC [Mat - Sensor, turn-off var - Eli Mod - D101] (Eterna round: R97, puzzle: Sensor, turn-off variant 1)”, the “apparent KD of MS2 coat protein” value reads like this: (input ligand: FMN 200 uM) 0.0433 µM; (input ligand: none) 0.0357 µM.

As to “UUAUACGUUGAGGAUAUGCGAUUUAGUAUAGUUGCAGAAGGCGAUACAUGAGGAUCACCCAUGUUUAUGGGCAU [LRO-Ex6-07] (puzzle: Exclusion 6)”, the “apparent KD of MS2 coat protein” value under setting [1] came out at 0.394 µM, the “apparent KD of MS2 coat protein” value under setting [2] came to 0.269 µM and the “apparent KD of MS2 coat protein” value under setting [3] stood at 0.259 µM.

With “UUAUACGUUGAGGAUAUGUCAGUUAGUAUAUUUACAGAAGGCGAUACAUGAGGAUCACCCAUGUUUAUGGGCAU [Ex-6 Malc#3] (puzzle: Exclusion 6)”, under setting [2], the “apparent KD of MS2 coat protein” value came out at 0.127 µM.

Turning to “UUAUAGUGAGGAUAUAUAUGCAGUAAACCUUUAAAUUUAUAACUUGAGGAUCACCCAAGUAGAAGGCGCGUUAU [JR_Ex2_Sub054] (Eterna round: R97, puzzle: Exclusion 2)”, the “apparent KD of MS2 coat protein” value reads like this: (input ligand: FMN 200 uM) 0.0153 µM; (input ligand: none) 0.0169 µM.

As for “UUAUAUAGUGUGAGGAUAUGCUGGUCCUUGGAUCAGCAGAAGGCACAUGAGGAUCACCCAUGUAGUUAAUAAUA [Mat - Exclusion 4 - JL Mod - D16] (puzzle: Brourd's mod of Exclusion 4)”, the “apparent KD of MS2 coat protein” value under setting [1] is 0.131 µM, the “apparent KD of MS2 coat protein” value under setting [2] was found to be 0.03 µM and the “apparent KD of MS2 coat protein” value under setting [3] came to 0.0428 µM.

As to “UUAUAUAGUGUGAGGAUAUGCUGGUCCUUGGAUCAGCAGAAGGCACAUGAGGAUCACCCAUGUAGUUUAUUUUA [JL bmx4 3.01] (puzzle: Brourd's mod of Exclusion 4)”, under setting [2], the “apparent KD of MS2 coat protein” value was found to be 0.0268 µM.
